What was measured:
RBPJ (CSL);N1ICD;MAML1 [1] = target: T1, RBPJ (CSL);N1ICD;MAML1 (mouse;mouse;human, UniProt P31266;Q01705;Q92585 53-474;1744-2113;1-280, ||); test: EMSA; both probes in the same reaction; 1 uM NICD/MAML; additive, not cooperative, less preferred than 1xSPS; Native PAGE EMSA, LICOR Odyssey CLx imaging; equal amounts of both probes in one reaction; buffer, salt, pH and temperature not stated (as in Uhl 2010, 2016); conditions: protein: recombinant;recombinant;recombinant; copies: 1;1;1; label: 5' IRDye-700 on the complementary strand (primer S25)
RBPJ (CSL) [2] = target: T2, RBPJ (CSL) (mouse, UniProt P31266 53-474); test: EMSA; both probes in the same reaction; RBPJ 10-320 nM, no co-activators; additive, slightly higher affinity than 1xSPS; Native PAGE EMSA, LICOR Odyssey CLx imaging; equal amounts of both probes in one reaction; buffer, salt, pH and temperature not stated (as in Uhl 2010, 2016); conditions: protein: recombinant; label: 5' IRDye-700 on the complementary strand (primer S25)
[3] = target: T3, Su(H);NICD;Mastermind (Mam) (Drosophila melanogaster;Drosophila …, UniProt P28159;P07207;P21519 98-523;1763-2412;87-307, ||); test: EMSA; both probes in the same reaction; 1 uM NICD/Mam; additive, not cooperative, less preferred than 1xSPS; Native PAGE EMSA, LICOR Odyssey CLx imaging; equal amounts of both probes in one reaction; buffer, salt, pH and temperature not stated (as in Uhl 2010, 2016); conditions: protein: recombinant;recombinant;recombinant; copies: 1;1;1; label: 5' IRDye-700 on the complementary strand (primer S25)
Su(H) [4] = target: T4, Su(H) (Drosophila melanogaster, UniProt P28159 98-523); test: EMSA; both probes in the same reaction; Su(H) 10-320 nM, no co-activators; additive, slightly higher affinity than 1xSPS; Native PAGE EMSA, LICOR Odyssey CLx imaging; equal amounts of both probes in one reaction; buffer, salt, pH and temperature not stated (as in Uhl 2010, 2016); conditions: protein: recombinant; label: 5' IRDye-700 on the complementary strand (primer S25)
RBPJ (CSL) [5] = target: T2, RBPJ (CSL); test: EMSA; both probes in the same reaction; RBPJ 10-320 nM, no co-activators; additive, slightly lower affinity than 2xCSL; Native PAGE EMSA, LICOR Odyssey CLx imaging; equal amounts of both probes in one reaction; buffer, salt, pH and temperature not stated (as in Uhl 2010, 2016); conditions: protein: recombinant; label: 5' IRDye-800 on the complementary strand (primer S25)
[6] = target: T3, Su(H);NICD;Mastermind (Mam); test: EMSA; both probes in the same reaction; 1 uM NICD/Mam; cooperative, less 2NCM complex than the mouse proteins; Native PAGE EMSA, LICOR Odyssey CLx imaging; equal amounts of both probes in one reaction; buffer, salt, pH and temperature not stated (as in Uhl 2010, 2016); conditions: protein: recombinant;recombinant;recombinant; copies: 1;1;1; label: 5' IRDye-800 on the complementary strand (primer S25)
Su(H) [7] = target: T4, Su(H); test: EMSA; both probes in the same reaction; Su(H) 10-320 nM, no co-activators; additive, slightly lower affinity than 2xCSL; Native PAGE EMSA, LICOR Odyssey CLx imaging; equal amounts of both probes in one reaction; buffer, salt, pH and temperature not stated (as in Uhl 2010, 2016); conditions: protein: recombinant; label: 5' IRDye-800 on the complementary strand (primer S25)
RBPJ (CSL);N1ICD;MAML1 [8] = target: T1, RBPJ (CSL);N1ICD;MAML1; test: EMSA; both probes in the same reaction; 1 uM NICD/MAML; cooperative, both sites preferentially filled; Native PAGE EMSA, LICOR Odyssey CLx imaging; equal amounts of both probes in one reaction; buffer, salt, pH and temperature not stated (as in Uhl 2010, 2016); conditions: protein: recombinant;recombinant;recombinant; copies: 1;1;1; label: 5' IRDye-800 on the complementary strand (primer S25)

Measured: binding result

T1 sequence (P31266 53-474, chain 1 of 3): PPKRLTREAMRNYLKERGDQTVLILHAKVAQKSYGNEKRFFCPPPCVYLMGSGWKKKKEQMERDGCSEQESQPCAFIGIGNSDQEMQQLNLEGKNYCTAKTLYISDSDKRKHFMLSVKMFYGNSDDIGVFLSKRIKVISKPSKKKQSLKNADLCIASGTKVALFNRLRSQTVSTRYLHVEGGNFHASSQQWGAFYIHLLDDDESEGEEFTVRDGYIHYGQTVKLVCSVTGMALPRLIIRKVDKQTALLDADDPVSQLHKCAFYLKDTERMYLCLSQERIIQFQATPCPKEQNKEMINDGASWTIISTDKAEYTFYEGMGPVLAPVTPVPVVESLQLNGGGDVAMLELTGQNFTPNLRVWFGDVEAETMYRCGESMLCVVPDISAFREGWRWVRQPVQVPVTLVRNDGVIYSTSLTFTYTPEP
T1 sequence (Q01705 1744-2113, chain 2 of 3): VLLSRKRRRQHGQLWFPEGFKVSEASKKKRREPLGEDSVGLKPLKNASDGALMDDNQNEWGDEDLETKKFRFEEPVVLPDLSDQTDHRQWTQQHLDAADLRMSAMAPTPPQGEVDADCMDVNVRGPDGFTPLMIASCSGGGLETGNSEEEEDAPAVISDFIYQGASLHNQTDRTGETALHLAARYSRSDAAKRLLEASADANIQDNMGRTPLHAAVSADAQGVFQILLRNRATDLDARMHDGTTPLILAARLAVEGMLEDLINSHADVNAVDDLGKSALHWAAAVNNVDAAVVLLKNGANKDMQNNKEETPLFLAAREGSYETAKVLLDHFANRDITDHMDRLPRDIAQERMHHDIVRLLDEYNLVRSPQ
T1 sequence (Q92585 1-280, chain 3 of 3): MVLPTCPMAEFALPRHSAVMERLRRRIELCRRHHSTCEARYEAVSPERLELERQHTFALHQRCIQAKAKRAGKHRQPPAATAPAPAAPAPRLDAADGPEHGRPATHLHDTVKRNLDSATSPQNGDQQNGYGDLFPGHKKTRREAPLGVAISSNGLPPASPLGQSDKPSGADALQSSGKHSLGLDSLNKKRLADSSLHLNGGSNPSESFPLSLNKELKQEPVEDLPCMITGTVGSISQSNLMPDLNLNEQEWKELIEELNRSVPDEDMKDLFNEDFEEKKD
T2 sequence (P31266 53-474): as the sequence (P31266 53-474, chain 1 of 3) above
T4 sequence (P28159 98-523): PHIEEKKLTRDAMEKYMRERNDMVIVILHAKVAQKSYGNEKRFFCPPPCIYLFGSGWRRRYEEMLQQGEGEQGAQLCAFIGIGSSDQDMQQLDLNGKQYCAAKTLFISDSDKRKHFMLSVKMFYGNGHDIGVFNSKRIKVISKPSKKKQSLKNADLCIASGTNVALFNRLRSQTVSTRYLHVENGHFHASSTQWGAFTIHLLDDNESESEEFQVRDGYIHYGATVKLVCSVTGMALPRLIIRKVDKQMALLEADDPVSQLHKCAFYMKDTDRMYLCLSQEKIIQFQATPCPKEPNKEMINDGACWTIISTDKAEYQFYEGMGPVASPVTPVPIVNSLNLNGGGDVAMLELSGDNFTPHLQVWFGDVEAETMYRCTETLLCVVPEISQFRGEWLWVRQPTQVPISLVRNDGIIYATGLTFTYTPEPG
T3 sequence (P28159 98-523, chain 1 of 3): as the sequence (P28159 98-523) above
T3 sequence (P07207 1763-2412, chain 2 of 3): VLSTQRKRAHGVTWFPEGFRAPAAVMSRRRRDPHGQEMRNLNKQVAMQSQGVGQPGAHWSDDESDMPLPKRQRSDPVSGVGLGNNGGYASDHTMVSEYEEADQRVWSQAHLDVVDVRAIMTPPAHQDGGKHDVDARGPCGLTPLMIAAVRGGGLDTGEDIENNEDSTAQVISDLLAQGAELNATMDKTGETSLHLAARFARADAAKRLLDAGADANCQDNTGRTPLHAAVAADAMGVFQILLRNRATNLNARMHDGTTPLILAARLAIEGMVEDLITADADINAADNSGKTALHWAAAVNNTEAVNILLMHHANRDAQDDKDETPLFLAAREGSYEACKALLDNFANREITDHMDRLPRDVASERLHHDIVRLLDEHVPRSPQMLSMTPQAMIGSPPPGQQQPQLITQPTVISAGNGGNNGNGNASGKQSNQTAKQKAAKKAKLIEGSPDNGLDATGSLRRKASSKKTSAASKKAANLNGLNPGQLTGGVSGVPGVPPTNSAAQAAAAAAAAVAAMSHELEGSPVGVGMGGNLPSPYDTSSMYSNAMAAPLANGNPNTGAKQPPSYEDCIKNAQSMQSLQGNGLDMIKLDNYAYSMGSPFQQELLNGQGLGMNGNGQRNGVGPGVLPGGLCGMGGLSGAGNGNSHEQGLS
T3 sequence (P21519 87-307, chain 3 of 3): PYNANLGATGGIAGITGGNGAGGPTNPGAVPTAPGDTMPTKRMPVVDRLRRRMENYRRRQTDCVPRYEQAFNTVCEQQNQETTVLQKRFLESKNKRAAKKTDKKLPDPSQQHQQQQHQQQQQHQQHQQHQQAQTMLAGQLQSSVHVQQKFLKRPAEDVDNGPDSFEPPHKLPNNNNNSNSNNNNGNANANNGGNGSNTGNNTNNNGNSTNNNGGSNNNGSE

B1: 2xCSL EMSA probe (dsDNA)
DNA 1: CGAACGTGGGAAACCTAGGCTAGAGGCACCGTGGGAAACTAGTGCGGGCGTGGCT
DNA 2: AGCCACGCCCGCACTAGTTTCCCACGGTGCCTCTAGCCTAGGTTTCCCACGTTCG
binds: RBPJ (CSL);N1ICD;MAML1 [1] | RBPJ (CSL) [2] | [3] | Su(H) [4]

B2: 1xSPS EMSA probe (dsDNA)
DNA 1: GCTACGTGGGAAAGGAGCAAACTGCGTTTCCCACGTTCGTAGTGCGGGCGTGGCT
DNA 2: AGCCACGCCCGCACTACGAACGTGGGAAACGCAGTTTGCTCCTTTCCCACGTAGC
binds: RBPJ (CSL) [5] | [6] | Su(H) [7] | RBPJ (CSL);N1ICD;MAML1 [8]

From PMC7213981, “Enhancer architecture sensitizes cell specific responses to Notch gene dose via a bind and discard mechanism”
